# Data: the supplement of paper PMC10126150
# ± gives the standard deviation of the averaged measurements.
# System: ATP
# Test: switch fluorescence ratio, 500 uM ATP over buffer (Cy3 cluster intensity, sum of 5 cycles each) (fold (ratio)); higher = stronger signal-on switching upon ATP binding; sequences stand for … in TCGTCGGCAGCGTCAGATGTGTATAAGAGACAGTTTTTTTTTTTTTTTTTTTTTTTTT…TC
# Settings: aptamer strand: ATP DNA aptamer (quencher-CACCTGGGGGAGTATTGCGGAGGAAGG + anchor), 100 nM annealed; ATP concentration: 500 uM
# How it was run: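 Switching-strand clusters labelled with Cy3 on a modified Illumina MiSeq flow-cell were annealed to 100 nM quencher-labelled ATP aptamer, imaged in selection buffer, and re-imaged after 15 min with 500 uM ATP at 22 °C. This was done over five cycles with NaOH stripping and re-annealing in between. The fluorescence ratio is summed target-cycle over summed buffer-cycle Cy3 intensity per cluster, averaged per switch-domain sequence, excluding clusters outside 100-1000 RFU.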
# 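Note: ATP exposure 15 min at 22 °C before imaging.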
row,Sequence,switch fluorescence ratio
1,AGAGGGTCCT,1.03 ± 0.034
2,AGAGGGTGTG,0.992 ± 0.034
3,AGAGGTATCG,0.995 ± 0.019
4,AGAGGTTGTT,0.995 ± 0.038
5,AGAGTCAATG,1.04 ± 0.023
6,AGAGTCCCTT,1 ± 0.036
7,AGAGTCTGGT,0.965 ± 0.03
8,AGAGTCTTTT,0.9934 ± 0.0016
9,AGAGTGGTTA,0.9864 ± 0.0033
10,AGAGTTGGCT,0.992 ± 0.021
11,AGAGTTGGTG,0.997 ± 0.031
12,AGAGTTGTGG,0.982 ± 0.024
13,AGAGTTTGTG,0.978 ± 0.015
14,AGAGTTTTTA,1.01 ± 0.035
15,AGATAAAATT,0.98 ± 0.056
16,AGATAATTAG,1 ± 0.023
17,AGATACAGTT,1.02 ± 0.034
18,AGATACATAT,1.05 ± 0.0056
19,AGATAGAAGG,0.995 ± 0.012
20,AGATAGATCT,0.9871 ± 0.0059
21,AGATATCAAC,1.04 ± 0.021
22,AGATATCATT,0.9848 ± 0.0086
23,AGATATCCGC,1.15 ± 0.05
24,AGATATGAGA,1.031 ± 0.0075
25,AGATATGTTT,0.986 ± 0.025

row,Sequence,switch fluorescence ratio
1,AGATATTTTT,0.975 ± 0.023
2,AGATCAAGGT,1.02 ± 0.013
3,AGATCATGAG,0.9708 ± 0.0079
4,AGATCGAAGG,1.03 ± 0.018
5,AGATCGACGG,1.014 ± 0.0095
6,AGATCGGGTG,1 ± 0.021
7,AGATGGCCGG,1 ± 0.065
8,AGATGGGGCC,1 ± 0.027
9,AGATGGGGTA,0.9705 ± 0.0077
10,AGATGGGGTG,1.23 ± 0.35
11,AGATGGGGTT,1.01 ± 0.028
12,AGATGGTCAC,1.032 ± 0.0086
13,AGATGTGCCT,1.01 ± 0.045
14,AGATGTTAGC,0.983 ± 0.047
15,AGATGTTAGG,0.981 ± 0.029
16,AGATTGAGAA,0.998 ± 0.028
17,AGATTGATGG,0.9848 ± 0.0026
18,AGATTGGAGA,1 ± 0.039
19,AGATTGGGGC,0.974 ± 0.013
20,AGATTGGTTG,0.985 ± 0.012
21,AGATTTATGT,1.01 ± 0.047
22,AGATTTTTCA,1 ± 0.021
23,AGATTTTTCG,1.04 ± 0.024
24,AGATTTTTTT,0.996 ± 0.031
25,AGCAAAAGGA,1.16 ± 0.22

row,Sequence,switch fluorescence ratio
1,AGCAACCGGT,1.1 ± 0.016
2,AGCAATATGG,2.49 ± 0.051
3,AGCACATGTC,1.07 ± 0.027
4,AGCAGAAATG,0.9979 ± 0.0074
5,AGCAGAGTGC,1.02 ± 0.055
6,AGCAGATAGG,1.03 ± 0.079
7,AGCAGGCCGG,0.976 ± 0.025
8,AGCAGGGAGC,1.01 ± 0.021
9,AGCAGTGTCT,1.04 ± 0.02
10,AGCATAGAGG,1.03 ± 0.03
11,AGCATATATG,1.02 ± 0.015
12,AGCATGAGAT,1.03 ± 0.039
13,AGCATTGAGG,0.984 ± 0.0067
14,AGCATTGTTT,0.985 ± 0.023
15,AGCCAGAGGG,1.005 ± 0.0055
16,AGCCATAAGG,1.012 ± 0.0061
17,AGCCATAGTC,1.113 ± 0.0056
18,AGCCATTAGC,0.992 ± 0.048
19,AGCCCGCCGG,1.03 ± 0.031
20,AGCCGGACGC,1.066 ± 0.0075
21,AGCCGGCCTG,1.02 ± 0.017
22,AGCCGTTTTT,0.973 ± 0.038
23,AGCCTAATGG,0.995 ± 0.041
24,AGCCTAGTTC,1.01 ± 0.026
25,AGCCTATACT,1.6 ± 0.16

row,Sequence,switch fluorescence ratio
1,AGCCTCGGTT,1.0014 ± 0.00098
2,AGCCTTTTTC,1.08 ± 0.091
3,AGCGAAAAGG,1 ± 0.041
4,AGCGACGGAC,1.42 ± 0.1
5,AGCGACTGTA,1.15 ± 0.22
6,AGCGAGACGT,1.12 ± 0.034
7,AGCGAGGGGC,1.02 ± 0.035
8,AGCGATTGCC,1.01 ± 0.016
9,AGCGCCAACA,1.02 ± 0.017
10,AGCGCCGCGT,1.09 ± 0.13
11,AGCGCCTCAG,1.003 ± 0.0081
12,AGCGCGGCGC,1.01 ± 0.051
13,AGCGCTATTT,1.04 ± 0.065
14,AGCGGAGTGA,1.007 ± 0.0093
15,AGCGGGGCGT,1.01 ± 0.014
16,AGCGGGGTCG,1 ± 0.011
17,AGCGGTGGTT,1.02 ± 0.012
18,AGCGGTTCAC,1.018 ± 0.0029
19,AGCGGTTGGG,0.9966 ± 0.0071
20,AGCGGTTTCG,0.986 ± 0.023
21,AGCGTACTTT,1.12 ± 0.018
22,AGCGTCAACG,0.954 ± 0.015
23,AGCGTCTGGG,1.0291 ± 0.00058
24,AGCGTGTGCG,0.989 ± 0.055
25,AGCTAGAGCT,0.963 ± 0.033

row,Sequence,switch fluorescence ratio
1,AGCTAGGAGC,0.972 ± 0.021
2,AGCTAGGCGC,1.01 ± 0.027
3,AGCTAGTTTA,0.998 ± 0.0036
4,AGCTATAAGG,0.982 ± 0.021
5,AGCTATCACG,1 ± 0.032
6,AGCTCTAAAT,1.04 ± 0.068
7,AGCTGACCGA,1.083 ± 0.0037
8,AGCTGAGGAG,1.0063 ± 7.3e-05
9,AGCTGATCTA,0.986 ± 0.022
10,AGCTGCCCCA,1.18 ± 0.13
11,AGCTGGAGGT,0.992 ± 0.026
12,AGCTGGGCCT,1.04 ± 0.011
13,AGCTGGGGTT,0.9962 ± 0.0062
14,AGCTGTACGG,1.029 ± 0.0084
15,AGCTGTTTAC,1.09 ± 0.016
16,AGCTTAGGGC,0.989 ± 0.03
17,AGCTTAGGGG,1.07 ± 0.11
18,AGCTTCGTCT,1.04 ± 0.065
19,AGCTTCTAAC,1.025 ± 0.0036
20,AGCTTGATTT,1.01 ± 0.039
21,AGCTTGGACC,1.009 ± 0.0084
22,AGCTTGGGGG,0.995 ± 0.027
23,AGCTTTTTGT,0.947 ± 0.023
24,AGGAAAAGGG,1.14 ± 0.1
25,AGGAAAATGT,0.984 ± 0.041

row,Sequence,switch fluorescence ratio
1,AGGAAAGTCT,1.02 ± 0.066
2,AGGAAATGTT,1 ± 0.051
3,AGGAAATTTT,1.01 ± 0.025
4,AGGAACGTAC,1.61 ± 0.057
5,AGGAACTTTT,1.42 ± 0.56
6,AGGAAGAGAG,1.016 ± 0.0083
7,AGGAAGATCC,1.002 ± 0.0083
8,AGGAAGGGGG,0.992 ± 0.034
9,AGGAAGTGCC,1.032 ± 0.0062
10,AGGAAGTGGT,0.9671 ± 0.006
11,AGGAAGTGTG,0.9869 ± 0.0079
12,AGGAATAAGT,1.11 ± 0.16
13,AGGAATCTAG,0.967 ± 0.03
14,AGGAATGGGA,1.02 ± 0.02
15,AGGAATGGTT,0.992 ± 0.041
16,AGGAATTTTC,0.994 ± 0.032
17,AGGACATTGG,0.966 ± 0.023
18,AGGACGAGCA,1.12 ± 0.015
19,AGGACGGGGA,0.99 ± 0.019
20,AGGACGTTTT,0.962 ± 0.01
21,AGGACTTGTG,0.972 ± 0.023
22,AGGACTTTGG,1.05 ± 0.056
23,AGGAGACAAG,0.948 ± 0.053
24,AGGAGATACT,1.09 ± 0.15
25,AGGAGATTTT,0.957 ± 0.032

row,Sequence,switch fluorescence ratio
1,AGGAGCTGCG,0.998 ± 0.038
2,AGGAGGACGG,1.01 ± 0.042
3,AGGAGGATCG,0.97 ± 0.079
4,AGGAGGCCAG,0.969 ± 0.05
5,AGGAGGCGTT,0.992 ± 0.029
6,AGGAGGGACT,1 ± 0.041
7,AGGAGGGAG,1.003 ± 0.0093
8,AGGAGGGGGA,1.03 ± 0.045
9,AGGAGGGGT,1.02 ± 0.07
10,AGGAGTATTT,1 ± 0.024
11,AGGAGTGGTG,0.994 ± 0.034
12,AGGAGTGTTT,1 ± 0.037
13,AGGAGTTTCG,1.01 ± 0.044
14,AGGATACCGC,1.12 ± 0.048
15,AGGATAGGGT,1.02 ± 0.05
16,AGGATCATGT,0.966 ± 0.042
17,AGGATGAAAT,0.992 ± 0.051
18,AGGATGGGCG,0.928 ± 0.039
19,AGGATTAACA,1.05 ± 0.013
20,AGGATTAGGG,1 ± 0.033
21,AGGATTATTG,0.991 ± 0.017
22,AGGATTGAAC,0.991 ± 0.018
23,AGGATTGGTG,0.999 ± 0.052
24,AGGATTTATA,0.991 ± 0.086
25,AGGCAAAGGG,0.995 ± 0.044

row,Sequence,switch fluorescence ratio
1,AGGCAACGGT,1.01 ± 0.012
2,AGGCAATATG,1.19 ± 0.018
3,AGGCAATTTG,1 ± 0.071
4,AGGCACCAAC,1.16 ± 0.044
5,AGGCACGACG,0.9561 ± 0.0074
6,AGGCACGGGG,0.9932 ± 0.0087
7,AGGCACTTTT,1.04 ± 0.015
8,AGGCCCACGG,1.006 ± 0.0067
9,AGGCCCGGAG,1.05 ± 0.045
10,AGGCCGAGGG,0.985 ± 0.012
11,AGGCCGATGG,0.983 ± 0.021
12,AGGCCGGTGC,1.04 ± 0.03
13,AGGCCGGTTT,1.017 ± 0.0061
14,AGGCCTCAGA,0.973 ± 0.015
15,AGGCCTCTGT,0.99 ± 0.011
16,AGGCGATATA,1 ± 0.024
17,AGGCGATGCG,0.994 ± 0.097
18,AGGCGCACGG,1.01 ± 0.029
19,AGGCGGCGG,0.975 ± 0.022
20,AGGCGGGGGC,1.03 ± 0.068
21,AGGCGGTGTG,0.973 ± 0.036
22,AGGCGTATAC,1.79 ± 0.18
23,AGGCGTGCTT,0.987 ± 0.032
24,AGGCGTGGGA,1.001 ± 0.0083
25,AGGCGTGTCA,1.004 ± 0.0083
